Molecular target: methanol dehydrogenase (MDH) of Bacillus brevis S1 strain (NCIMB No. 12524) (Bacillus brevis S1 strain)

methanol dehydrogenase activator YqkG of Bacillus subtilis (product of the yqkG / amd gene)
Activation ratio (%) of methanol dehydrogenase activity (Δ OD 340 nm/min, reduction of NAD+): 250%

Source: US6280972
